Laboratory results from the domain aggregation screens of Martell et al. (2025).

assay: soluble fraction after stress (log2 fold change); higher = more stays soluble; pooled small domains, quantitative proteomics; conditions: stress: pH 4
How it was run: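 Values are on a log2 scale, where higher means more of the domain stayed soluble after pH 4 stress. They are fold changes in the soluble amount of each domain from pooled custom libraries, measured by high-throughput quantitative proteomics. The fold change is taken to reflect aggregation propensity.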

| Sequence | soluble fraction (log2) |
| --- | --- |
| HMFAKVEGITGDILDKLQQQRGFLALSDKSSPEAIYDTFGVSKKVFKQAIGTLFKQQKISIEAEGIRLV | -0.0102 |
| HMTGLSNFEFNQIKLDLMHELTQTPLRLTDLVNRITSFENEKTITVIRFLVDEGILLLKDDTLSVAKID | -1.47 |
| HMAEANTEADFVAIGVRAELLPILQKLGVHTIEQLKGIKATKLFNDIPGMRKKLKLDAVQNPTLQEIEGWL | -0.393 |
| HMNDTPPELRAALDLLGLKWPLASVELRARYKDLAKQHHPDATGGDKQAEERLKDINRAYSLLKHRLAKQ | 0.144 |
| HMNYDPEEKITQIRTMLEIHSRIEFNEIITPATRRGEIIIIFLALLHMIKRGYIVVRQHRLFGDITIFARD | 0.22 |
| HMRSLATFEEEKIALRFWNYLQSEGIKSTLEEEGPRDWVIWVIDEEKIPSATQSLEKFNLNPDDPAFSN | -0.137 |
| HMELVIGESLAVELLRPGKEDGQALGYLPDGSMVVVNNGRAFVGKRVTAEIIGVIRSAGGKMVFSNLLGE | -2 |
| HMEDPFLWVEKLGSSDWIEREESAEKLLEAGEASVEALRTALTHPDLEVRERVRELLSVISPL | -1.82 |
| HMFMPGTIIKQFRELRNYSQDYVSRKMGISQNAYSKIENNITQLTVTHVKQLSSILDVPIVELLR | -0.366 |
| HMNQTEKSKITHNELLKAAHSLFIEQGFNHTTITDIVTRAGYSTGIFYKHYKTKTDILVELWTNYIE | -1.28 |
| HMESADEESNALMYDGLLAMRGKRYEVALEFFDALVKHDPDFAEGWNKRATVLYLLGRYERSIADIKQVLA | -0.0176 |
| HMDENMQRYNTMEEIKKEFPYAEDTVRKLIAMGAIRGGGKVDANGDPADMDLSRDMLRMMVFNDRAGAYG | -0.761 |
| HMIVKQPDIRKQELLDIGVRLYFEAGEKGVSIQQVVKQAGVATGLFYYYFSSKDAFLDEALNDYID | -0.0638 |
| HMTRDAQLAALERLMDDPSPVVRKAVLKGVQAAGTEGLLWLQQLSKNQTLGPYALALLTELR | -0.0392 |
| HMLDVNLIFSRPGFSLSAAFTLHAGGITVLRGDSGSGKTTLADLLSGAIAPQKGRILSDGDIWFDAASGIN | -0.163 |
| HMAVNQEFKNTINRIKYEYSLNQSQIADRLGVKKTYLSDMINGRVPYNETMNKKVNDVFPLPP | ≥ 0.43 |
| HMKEAISIYPNPVKDILTIRGMDETSGVSFKLYDVTGNLLLESTHSELDMSGLNRGVYFLDIAGDVRKVVK | -1.07 |
| HMNSTVKVPNVVGMSVPQAKALLEQNHLLVQGIREVSTDKAPAGIVINQLPYSDAEVKEERHIYLTVSKGK | 0.0926 |
| HMNLGLTGDPSVLYSILLQRGDSSRADLQRQTGWSLSKTTLVLNQLLAQKLIVQVGAGRSTQYRVIN | -0.196 |
| HMAVSVPDVMGLTYEEAYNKITAEGLLVNRLESYTGLVEKGRVISQLPVGGEPAAKGSTVNVNVSL | -0.139 |
| HMQNGNLVDVYLNWRGKYYAIKMFFPNSKMPRRSDVQDQIVKVYPDARVQSFQVSKYVPGQPFL | -0.431 |
| HMPKRYAGPDIIAIYGSDVFFRVGSGDGLMVIPVGRSMDNIEVVSVDAPRSVELMWKDGGPFTVPV | -0.218 |
| HMLSDSDTLRDLYLSEQIWNVGDLIRVKGKNDDTHPSWEIIRRGTNYITAIDENYKSHKVWLHDIDI | -1.4 |
| HMFLTSDEGKIMQLLEDKQRITRKDAQELLGVSQSTAGRILKTLVDNGQITQRGGGRTTRYELIK | 0.22 |
| HMGKTEMPFSTFLTEVDKGNIVSVDIRGSEISGNFRDGKGFKTYSPNYPNLVEKLSAKGVAITAGPR | 0.295 |
| HMTVPMKILILEDEQRNAMRLIRLLNDIDTTFIIEGPLTNIKEAVDFFQSGKTTDLILADIRL | -0.489 |

| Sequence | soluble fraction (log2) |
| --- | --- |
| HMSQEAKLAMPVTDLRLSARTLNALELANIRTVRDLVSHTEEQLLELRNFGETALAEVKEKLAALGLRLGM | -0.436 |
| HMQILNVFSKHGIKPISPQIGDKFDPQLHEAMFEAPVPGTKAGDIIEVSSEGFMLYDRLLRPAHVGVSSN | -0.138 |
| HMRADRLISMLMLLQARGKITAEELAVELGVSQRTIYRDIEALSFAGVPVYAERGPGGGIGLLEPY | -1.21 |
| HMDAQNLQDQLFGFLKANPTQAYPAQTLADGLRLDDANAFTKVVQALAALERGGKVKVNEEGAFQYDAEK | -0.0669 |
| HMDEFTIILEDAGSQKIAVIKEVRVLNSSLGLKEAKDLVDATPATIMEKADKATADKAKAAFEAAGAKVTI | -0.75 |
| HMQRNLILKLDTDQPEIYKKLESIFVEINGLLVPFFIEKIIWSKQDSLNILFKNSSEALVEQLIGKNVFLP | 0.0162 |
| HMLAQISDEGAIGAVVARVLDAHPNEVARYHAGEEKVAKFLMGAAMRELRGKGDPAVVQRLLSEGLDARRV | 0.294 |
| HMNPETLTNGSVVKMSKANLSDELIIDMINNSPARFDLSSGALRSLEGEGVSKAVIESMKRATSG | 0.0233 |
| HMAEAPGSVELLAERLRPWWEIHGGEWGSKTKALRFLFGDQAPVAGSYWRALEAAIAQIESTT | -0.108 |
| HMENITTILRSIKNEIKKNSTFVGDDFVNQARSMNQGQIKEKSIYGHGTKKEIEELRDEGVDVLNIPWIT | 0.0184 |
| HMGTDGLKDIVLEILKEHPNQLAELIDGKQKVLGFLVGQVMKKTNGAANPKEVNEIIQGEIKK | -0.433 |
| HMISKTFEINEDNINNRLDIFLANQFDNLSRGIVQKLIESHSVSVSGNFVEKDYKLKLGDIIDVEINLS | -0.853 |
| HMKSVQIPQSITVKEFSQAIEVSVADVIKKLMSMGVMVSQNKEINVDTAILVGEEFGVTVNVA | -0.0481 |
| HMAYMETIERVEALAPGTKFNLKALFGTDWTQSRGTKLTLGKTFYEMVESGYVKTAKVLGKDSSNIMQYER | -0.0837 |
| HMSSYETVTLNGQRYFKYKVKSGEGLYAISRMFSTPIAEIIRHNPSSNAGLKNGQELLIPVN | -0.0689 |
| HMDHWQSVNSALELLEVSRRTLYDYISRKKLQTKKEGKYRYVWIDDDVIEEIKTSKSAYIEINN | -1.08 |
| HMRSTIYEFTVPPGQLESIRLDVYITSFVENATRSKVQEAIKQGYVWVNGKHEKASYTMLPGDKIYIELPI | -0.497 |
| HMPGPAEMPGWITARAKKLGGQITPEAARALAAEMGSDTEQASREIEKLLTYVDYRRPVEEEDVALLTA | 0.00808 |
| HMSPSLVEAMRLRMYEMGLNQAKLSELLGVSPSRVSDYLTGRSEPTLKVARDISRKLNIDASIVLG | -0.0682 |
| HMNKEKLLEMFESMSIIIVQSLEEKEQTEDRIETELFNEAKTPRYSTLTKQDIQSVIRNILITVGV | -0.959 |
| HMTANTQVENIRLELQRYMDEHGISQVTVARGIGKTHPVISQFLNNKYPGDVEEVARAIESWLTKQHEKAA | 0.381 |
| HMDKFKDVGARIREARKVQKLSQADLAERLQISTSHMSDIENGKKNIGLDIFMRLTEALQVSADWLL | -0.567 |
| HMDSEEVYQMTKHKMDAAQISVAKRIHINLVLVKLLELHHLGYDLRHYHAQHHAFIKRLNLPEYFRFD | -0.832 |
| HMSVPNVVGRDQVEASSLLESAGFKVSVKQSYSDSVEQGKVISQSPSGSTTVSPGSTVTITVSQ | -0.155 |
| HMLTSAQLAEIRQAVRAGQASVVEDLLKNGASPNFRMENGDTGFTYAVRADTPQVAEALLKSGKL | -0.00206 |
| HMNSNTIIFSQFLSEVDNGRVTQVQIQGNNIKGTLSNGKDFITYAPNDPNLIEKLTSKGVSISASPID | 0.217 |

| Sequence | soluble fraction (log2) |
| --- | --- |
| HMIDFTHEDIERLWNAIVHYVPERQKSDMAIDFIKSLEDIGVEHDEIKASAEYDPKLEEAINTVY | -0.357 |
| HMELGYTPNNLRSVRAKYGLTQKQVAEITGLKTWHPVNRWEAPVEAAYHADMPHTKWLKLLDELSSR | -0.0144 |
| HMGAYIPSYAPVDINAATHTVVRGDTVYNISKRYHVSQEDFRAWNGMADNTLSIGQVVKVKPAGYTAPK | 0.22 |
| HMSKKQEQALQSREKLLDAATALFAEHGYRDTSVQAIGEKAGVSRGSIFWHFGSKEGLLWAVVERAFTA | 0.346 |
| HMENLRLSELTVERGHRLAGRTLADIASAPNSPKYLIVLIQRGQETVIPTGSTVILPGDVLILAQS | -0.749 |
| HMDVPNLVGEEIKDVRRTLRHFQLEVIGEGSKIVSQVPKHGQRLPENTTIRVYLN | -0.0434 |
| HMSFGESLKKLSIALNSIRKLATTDAGKKDPKVADLLGQIRDTFNSYRTHLRKNYPDLYSGIKNQL | -0.311 |
| HMKRAVGLDEYRDSIVLKKPEGYTEESYAAYKNAYDALMALDSKETTAEMFANAKSAFEAAQAGLVQKP | 0.0195 |
| HMENIIKISASYEGLRVDQFLSNYLKISRSKVQKYISEEKIFLNNVPTKTNRKVKLDDIISYNLNF | 0.0839 |
| HMIPTTELAERLGTTKVANMIMLGALIKASGIISFDDMIKNLGELLGEGKAKLIKLNKEALEVGFN | 0.0451 |
| HMHPMVEAYLADLDRALSGSDPREHAETMSAVREHLADAIAPDATAEQVRHALDELGPVEAIAAG | -0.239 |
| HMEDKIIVTVPGEYHLERIDRFLAANLEEDLSRSLIQRYIRENLITVNGEAVRANYKVKTDDEILITFPQ | -1.04 |
| HMITKEDVANKKVNLLFFGNFHKMKLPDFEWGITEMMQDRDYLYGSLTKDLYFLGLVLDRKYKI | 0.124 |
| HMGPAYQTQRQEAFAALSEIAAKNPQLMQVAGDLVFRAADFPMADELADRLAKTLPPQLQDKKGQP | -0.313 |
| HMGPIITKTYNLSYATARDVNDIIKSKKSARGDIVIDTRTNSLIVSDVQEKIDLIDEIVATL | -1.37 |
| HMRGLVPEIVGTLEGEIRAGTLAVGQKLPTEAEIMARFDVSRTVVREALSRLQASDLVETRHGIGTFVSAR | 0.163 |
| HMQITSTDEIEKMIDELIAANPEQTKQYQNGNHKVAGWFVGQMMKASKGKANPQMVNNLLQKKL | 0.166 |
| HMENQGEDMRQQVKALVNADKTNITKLATATGYSRSTISMYLAGNYKGDVEAVERRLEEYMKTQG | 0.167 |
| HMEYDEVVVVKQIIPKGKNTMVAHLKHLKEHGETGFLKQAVGYLKLHASEIPFSVDAVISEVH | -0.0529 |
| HMTKIEYTEQEFNDFIQAYKNNRKMFPEDYIVKTQVVFINKGFSKSQADMIIAQIETRLRLQGE | -0.378 |
| HMIVDINDVRIDKYIADNTDYSRNLILNLIKNGDILVNDSKIKPSYKVKQGDKITINNVKTD | -0.284 |
| HMSVDAMDEANERKMAKTFNMIVLGGLLKIRPIVSIESVIKALRKTLPERHHHLIPMNEEAIHIGMDII | -0.288 |
| HMKAPPLTDREKEILRWVAAGLQNKEIAHKLGISLATVRNHIHNILEKLDVHSKLEAVSLAFRQGWVS | -0.133 |
| HMPKSKTPDDAAEEFRTAFSALDMDGKVTVKDMAEYMGVIDKTVYARLKKMGDEFTLDKGVITKKT | -0.084 |
